Test results: US20090098142A1

Tests used:
[1] = molecular target: cynomolgus monkey IL-13 (NHP IL-13) (cynomolgus monkey); assay: cell-based or functional assay
[2] = molecular target: native human IL-13 (human) (UniProt P35225); assay: cell-based or functional assay
Chain of native human IL-13 (human) (P35225 other isoform, or with tags, fused parts or gaps): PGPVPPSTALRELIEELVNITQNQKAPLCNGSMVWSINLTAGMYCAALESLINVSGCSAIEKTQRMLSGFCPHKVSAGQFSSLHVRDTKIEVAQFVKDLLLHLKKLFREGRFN

Chain of cynomolgus monkey IL-13 (NHP IL-13) (cynomolgus monkey) (Q5I6E4 other isoform, or with tags, fused parts or gaps): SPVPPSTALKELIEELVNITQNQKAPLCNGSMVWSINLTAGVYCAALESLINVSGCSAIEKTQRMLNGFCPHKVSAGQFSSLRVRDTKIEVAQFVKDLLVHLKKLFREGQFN

B1: antibody with the murine heavy chain of MJ2-7 and a humanized light chain (antibody, part only; not given: humanized light chain, V domains shown, part only)
VH: EVQLQQSGAELVKPGASVKLSCTGSGFNIKDTYIHWVKQRPEQGLEWIGRIDPANDNIKYDPKFQGKATITADTSSNTAYLQLNSLTSEDTAVYYCARSEENWYDFFDYWGQGTTLTVSS
Question: Which CD23 expression assay, non-human primate IL-13 at 1 ng/ml, IC50 [1] does the source give for B1 here?
Answer: Its CD23 expression assay, non-human primate IL-13 at 1 ng/ml, IC50 is 0.308 nM.

Question: And the STAT6 phosphorylation assay, native human IL-13 at 1 ng/ml, IC50 [2]?
Answer: Its STAT6 phosphorylation assay, native human IL-13 at 1 ng/ml, IC50 is 0.554 nM.
